The test has as its target Monoclonal antibody L9 (human IgG). The experiment in a line: KinExA (kinetic exclusion assay); equilibrium in solution; antigen serially diluted into a constant concentration of antibody (human IgG as constant binding partner); equilibrated 24 h; room temperature (about 25 °C); 1x HBS-EP+ pH 7.4 with BSA at 1 mg/mL; antigen cross-linked to beads as capturing reagent; n-curve analysis. (Kinetic exclusion samples the free partner from a solution-phase mixture.)

Chain of Monoclonal antibody L9 (human IgG) (heavy, as listed by the source, chain 1 of 2): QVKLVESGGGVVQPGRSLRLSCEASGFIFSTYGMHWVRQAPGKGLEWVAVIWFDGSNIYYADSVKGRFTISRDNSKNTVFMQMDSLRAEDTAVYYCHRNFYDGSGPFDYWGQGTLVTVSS
Chain of Monoclonal antibody L9 (human IgG) (light, as listed by the source, chain 2 of 2): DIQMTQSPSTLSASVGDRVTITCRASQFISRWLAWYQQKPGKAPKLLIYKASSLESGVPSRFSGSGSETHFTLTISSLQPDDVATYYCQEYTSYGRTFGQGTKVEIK

As a reminder, the Kd is the constant that tells how readily two partners part at equilibrium. High values mean a looser complex, low ones a tighter complex. Molecule NANPNVDPNANPNVDPNANPNVDP (modifications not checked) [triple-NPNV peptide] returned a Kd of 0.059 nM.
The value for NANPNVDPNANPNVDP (modifications not checked) [double-NPNV peptide] was 4.56 nM.

For the origin of these results see article PMC13079917.
